According to US20110275569A1, “PROTEASES TARGETING AGENTS” (CONSIGLIO NAZIONALE DELLE RICERCHE, priority 2008, published 2011):

B1: TFS1: protein of the yeast, founder of the family I51, able to inhibit the carboxypeptidase Y (protein, UniProt P14306 1-219, looked up)
Carboxypeptidase Y inhibitor: MNQAIDFAQASIDSYKKHGILEDVIHDTSFQPSGILAVEYSSSAPVAMGNTLPTEKARSKPQFQFTFNKQMQKSVPQANAYVPQDDDLFTLVMTDPDAPSKTDHKWSEFCHLVECDLKLLNEATHETSGATEFFASEFNTKGSNTLIEYMGPAPPKGSGPHRYVFLLYKQPKGVDSSKFSKIKDRPNWGYGTPATGVGKWAKENNLQLVASNFFYAETK
B2: Sso0767: recombinant protease inhibitor protein from Sulfolobus solfataricus, PEBP family I51, monomer of 19.0 kDa, 157 amino acids (protein, listed as Sulfolobus solfataricus)
chain: MNSESIYSMRVVSSAFKNEDFIPIKYTCDGQDLSPELEWDLVTNAKSYAIIVEDPDAPGGTFIHWVIYNITTNRLPEGVPRLYKSQYGVQGVNDFGNIGYNGPCPPKTHPPHRYYFYVYAIDTILLEIKNINADKLKSLMEGHGIERGFVMGKYKRK

Experiments:
carboxypeptidase Y [1] = molecular target: T1, carboxypeptidase Y (Saccharomyces cerevisiae, UniProt P00729); details: read-out: inhibition constant, carboxypeptidase Y; cited from earlier work
T1 sequence (P00729 112-532): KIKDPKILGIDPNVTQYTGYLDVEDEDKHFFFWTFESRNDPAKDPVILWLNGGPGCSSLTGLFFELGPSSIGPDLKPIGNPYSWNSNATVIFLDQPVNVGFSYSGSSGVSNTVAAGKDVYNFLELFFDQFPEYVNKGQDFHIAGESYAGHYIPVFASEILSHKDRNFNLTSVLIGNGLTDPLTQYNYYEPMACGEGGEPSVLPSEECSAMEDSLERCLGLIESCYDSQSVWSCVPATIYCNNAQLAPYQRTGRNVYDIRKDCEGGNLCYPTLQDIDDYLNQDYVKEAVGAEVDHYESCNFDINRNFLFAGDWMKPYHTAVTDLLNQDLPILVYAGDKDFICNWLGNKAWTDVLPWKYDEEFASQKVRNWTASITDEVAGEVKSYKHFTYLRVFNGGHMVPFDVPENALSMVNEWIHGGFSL

bovine α-chymotrypsin = bovine α-chymotrypsin (Bos taurus, UniProt P00766); assay: Inhibition of bovine alpha-chymotrypsin by the S. solfataricus inhibitor; format: biochemical
Protocol: (§1) To identify the biological function of the purified inhibitor Sso0767 (SsCEI), the ability to inhibit a number of proteases was tested. The set of the proteases examined includes: the alpha-chymotrypsin, trypsin, elastase, carboxypeptidase Y, subtilisin, thrombin and two thermophilic proteases, the kumamolisin-ac and pernisine. […] The specific interaction between the inhibitor and the target proteases was also examined by incubating Sso1273 in a reaction mixture containing all the proteases investigated. In these conditions, the catalytic performance of the inhibitor was identical to that observed by assaying each protease alone.
The inhibition of Sso1273 (SsCEI) versus α-chymotrypsin followed a hyperbolic pattern with increasing concentrations of the inhibitor and the IC50 value (50% inhibitory concentration) was 0.10 μM (Table II).
The reciprocals of the rate of the substrate hydrolysis for each inhibitor concentration were plotted against the reciprocals of the substrate concentrations. Ki was determined from the formula as per the competitive type of inhibition.
(§2) In Table II are reported Ki and IC50 values that are the average of 3-5 separate determinations.

[2] = Stability of the purified inhibitor (heat, denaturants, digestive proteases); format: physicochemical
porcine elastase = porcine elastase (Sus scrofa, UniProt P00772); assay: Inhibition of porcine elastase by the S. solfataricus inhibitor; format: biochemical
Protocol: as §1, §2

trypsin = assay: Protease specificity panel: trypsin; format: biochemical
Protocol: as §1

subtilisin = assay: Protease specificity panel: subtilisin; format: biochemical
Protocol: as §1

thrombin = assay: Protease specificity panel: thrombin; format: biochemical
Protocol: as §1

carboxypeptidase Y [3] = molecular target: T1, carboxypeptidase Y; assay: Protease specificity panel: carboxypeptidase Y; format: biochemical
Protocol: as §1

Sequence of porcine elastase (P00772 27-266): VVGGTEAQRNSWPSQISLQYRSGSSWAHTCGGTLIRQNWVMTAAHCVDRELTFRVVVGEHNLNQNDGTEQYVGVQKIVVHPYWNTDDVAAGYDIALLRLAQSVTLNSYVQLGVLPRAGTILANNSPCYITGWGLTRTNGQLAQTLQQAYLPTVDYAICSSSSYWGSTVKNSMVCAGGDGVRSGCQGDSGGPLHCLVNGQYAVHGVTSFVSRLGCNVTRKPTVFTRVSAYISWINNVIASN

Row | Molecule | Ki (carboxypeptidase Y [1]) [nM] | inhibition activity toward α-chymotrypsin (in words) (bovine α-chymotrypsin) | type of inhibition of α-chymotrypsin (bovine α-chymotrypsin; Lineweaver-Burk reciprocal plot) | resistance to common protein denaturants [2] | thermostability: inhibitory activity after incubation ([2]; 4 days at 90° C.) | resistance to digestive proteases ([2]; several digestive proteases) | inhibition activity versus elastase (in words) (porcine elastase) | effect on trypsin (trypsin) | effect on subtilisin (subtilisin) | effect on thrombin (thrombin) | effect on carboxypeptidase Y (carboxypeptidase Y [3])
1 | B1 | 1.8 | – | – | – | – | – | – | – | – | – | –
2 | B2 | – | best target protease among those tested | competitive inhibitor | high resistance | no reduction in inhibitory activity | resistant | clear activity | not affected | not affected | not affected | not affected
